In paper PMC9236144 (Molecular Biology of the Cell, 2022):

Molecular target: Bni1FH1C (Bni1 residues 1227-1953) (S. cerevisiae, UniProt P41832 1227-1953)
Assay: fluorescence polarisation

Sequence of Bni1FH1C (Bni1 residues 1227-1953) (P41832 1227-1953): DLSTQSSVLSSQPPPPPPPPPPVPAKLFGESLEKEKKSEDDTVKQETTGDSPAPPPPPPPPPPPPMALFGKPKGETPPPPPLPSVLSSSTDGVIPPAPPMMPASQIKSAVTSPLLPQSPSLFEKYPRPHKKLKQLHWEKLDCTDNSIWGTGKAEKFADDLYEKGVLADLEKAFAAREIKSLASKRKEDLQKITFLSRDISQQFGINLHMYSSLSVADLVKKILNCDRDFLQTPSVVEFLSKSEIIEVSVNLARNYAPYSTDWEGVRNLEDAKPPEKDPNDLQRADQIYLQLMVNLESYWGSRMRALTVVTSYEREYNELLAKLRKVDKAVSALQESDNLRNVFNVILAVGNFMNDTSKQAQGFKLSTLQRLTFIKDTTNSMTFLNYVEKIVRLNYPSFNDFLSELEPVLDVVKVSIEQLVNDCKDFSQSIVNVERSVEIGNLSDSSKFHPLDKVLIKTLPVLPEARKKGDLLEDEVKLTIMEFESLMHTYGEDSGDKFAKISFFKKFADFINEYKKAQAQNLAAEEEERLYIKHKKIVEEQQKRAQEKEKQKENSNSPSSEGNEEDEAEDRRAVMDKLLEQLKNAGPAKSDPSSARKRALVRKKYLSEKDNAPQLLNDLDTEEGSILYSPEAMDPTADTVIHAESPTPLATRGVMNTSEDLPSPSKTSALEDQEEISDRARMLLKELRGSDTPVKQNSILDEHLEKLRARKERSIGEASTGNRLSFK

B1: Bud6C (Bud6 residues 550-789) (domain or fragment, S. cerevisiae, UniProt P41697 550-788, looked up)
chain: AKNSSNRMYMEKSQTELGDLSDTLLSKVDDLQDVIEIMRKDVAERRSQPAKKKLETVSKDLENAQADVLKLQEFIDTEKPHWKKTWEAELDKVCEEQQFLTLQEELILDLKEDLGKALETFDLIKLCCEEQEKNPSRSKSNPILPIMRPGTFNQVREQVMVAVQSLNPDHDSRVEAIDKAEKMWEMERKLKASNEFDDELENFVGNSNLKKSGGFEEVERIRKQKDEANLRAYFGPGFT
B1: binds.
